In assay [1] the target is T1, 4H2600-AA.
T1 chain: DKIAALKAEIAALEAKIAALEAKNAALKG
The assay is described as follows: two-hybrid library CCmax.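 Also: natural log of median RNA to DNA barcode read ratio; higher means stronger binding.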

Assay [2] has as its target T2, 4H2721-AA.
T2 chain: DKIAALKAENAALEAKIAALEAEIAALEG
Kind of assay: two-hybrid library CCmax.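 Also: natural log of median RNA to DNA barcode read ratio; higher means stronger binding.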 The note with it: mean of both orientations.

Assay [3] concerns the target T3, 4H2750-AA.
T3 chain: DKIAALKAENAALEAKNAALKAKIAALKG
The assay is described as follows: two-hybrid library CCmax.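 Also: natural log of median RNA to DNA barcode read ratio; higher means stronger binding.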 The note with it: mean of both orientations.

For assay [4], the target named is T4, 4H2898-AA.
T4 chain: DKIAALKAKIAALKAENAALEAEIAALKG
The assay is described as follows: two-hybrid library CCmax.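 Also: natural log of median RNA to DNA barcode read ratio; higher means stronger binding.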 The conditions noted are these: mean of both orientations.

Assay [5] addresses T5, 4H3020-AA.
T5 chain: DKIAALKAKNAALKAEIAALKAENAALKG
The assay is described as follows: two-hybrid library CCmax.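 Also: natural log of median RNA to DNA barcode read ratio; higher means stronger binding.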 The conditions noted are these: mean of both orientations.

Assay [6] deals with T6, 4H3365-AA.
T6 chain: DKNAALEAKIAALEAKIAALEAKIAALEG
Kind of assay: two-hybrid library CCmax.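 Also: natural log of median RNA to DNA barcode read ratio; higher means stronger binding.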 The conditions noted are these: mean of both orientations.

Assay [7] deals with T7, 4H355-AA.
T7 chain: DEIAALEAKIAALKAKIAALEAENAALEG
Kind of assay: two-hybrid library CCmax. The conditions noted are these: mean of both orientations.

In assay [8] the target is T8, 4H3651-AA.
T8 chain: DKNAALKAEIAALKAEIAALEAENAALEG
The assay is described as follows: two-hybrid library CCmax. The conditions noted are these: mean of both orientations.

The target of assay [9] is T9, 4H3705-AA.
T9 chain: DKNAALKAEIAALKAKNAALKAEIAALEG
Kind of assay: two-hybrid library CCmax. The note with it: mean of both orientations.

Assay [10] concerns the target T10, 4H3782-AA.
T10 chain: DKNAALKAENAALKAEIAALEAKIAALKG
The assay is described as follows: two-hybrid library CCmax. The note with it: mean of both orientations.

The target in assay [11] is T11, 4H465-AA.
T11 chain: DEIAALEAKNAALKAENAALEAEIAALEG
Kind of assay: two-hybrid library CCmax. The note with it: mean of both orientations.

For assay [12], the target named is T12, 4H486-AA.
T12 chain: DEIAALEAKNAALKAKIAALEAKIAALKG
Kind of assay: two-hybrid library CCmax. The note with it: mean of both orientations.

Assay [13] addresses T13, 4H535-AA.
T13 chain: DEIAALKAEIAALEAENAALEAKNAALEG
Kind of assay: two-hybrid library CCmax. The note with it: mean of both orientations.

Assay [14] addresses T14, 4H58-AA.
T14 chain: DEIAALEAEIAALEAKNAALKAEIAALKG
The assay is described as follows: two-hybrid library CCmax. The conditions noted are these: mean of both orientations.

The target in assay [15] is T15, 4H895-AA.
T15 chain: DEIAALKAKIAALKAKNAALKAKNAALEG
The assay is described as follows: two-hybrid library CCmax. The note with it: mean of both orientations.

Assay [16] concerns the target T16, 4H_APH.
T16 chain: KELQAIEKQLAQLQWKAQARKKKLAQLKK
Kind of assay: two-hybrid library CCmax.

Assay [17] deals with T17, 4H_BCR.
T17 chain: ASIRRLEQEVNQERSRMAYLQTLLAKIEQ
The assay is described as follows: two-hybrid library CCmax. The note with it: mean of both orientations.

Assay [18] concerns the target 4H_GCN4. Kind of assay: two-hybrid library CCmax.
For assay [19], the target named is GCN2_T. The assay is described as follows: two-hybrid library CCmax.
Assay [20] addresses T18, 4H2438-bN.
T18 chain: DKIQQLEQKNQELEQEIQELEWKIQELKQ
The assay is described as follows: two-hybrid library CCNG1.

The target in assay [21] is T19, 4H2473-bN.
T19 chain: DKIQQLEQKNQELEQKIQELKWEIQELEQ
The assay is described as follows: two-hybrid library CCNG1.

The target of assay [22] is T20, 4H2503-bN.
T20 chain: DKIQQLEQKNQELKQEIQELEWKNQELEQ
The assay is described as follows: two-hybrid library CCNG1.

For assay [23], the target named is T21, 4H2588-bN.
T21 chain: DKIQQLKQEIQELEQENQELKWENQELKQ
The assay is described as follows: two-hybrid library CCNG1.

The target of assay [24] is T22, 4H2692-bN.
T22 chain: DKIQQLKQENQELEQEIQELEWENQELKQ
Kind of assay: two-hybrid library CCNG1.

Assay [25] has as its target T23, 4H2717-bN.
T23 chain: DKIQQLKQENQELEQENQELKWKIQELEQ
The assay is described as follows: two-hybrid library CCNG1.

Assay [26] has as its target T24, 4H2839-bN.
T24 chain: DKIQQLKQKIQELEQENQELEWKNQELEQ
The assay is described as follows: two-hybrid library CCNG1.

For assay [27], the target named is T25, 4H2915-bN.
T25 chain: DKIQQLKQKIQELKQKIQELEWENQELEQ
The assay is described as follows: two-hybrid library CCNG1.

Assay [28] deals with T26, 4H3057-bN.
T26 chain: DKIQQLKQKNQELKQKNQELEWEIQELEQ
Kind of assay: two-hybrid library CCNG1.

In assay [29] the target is T27, 4H319-bN.
T27 chain: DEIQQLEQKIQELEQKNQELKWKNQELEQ
The assay is described as follows: two-hybrid library CCNG1.

The target of assay [30] is T28, 4H3277-bN.
T28 chain: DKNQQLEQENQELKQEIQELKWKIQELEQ
Kind of assay: two-hybrid library CCNG1.

Assay [31] has as its target T29, 4H348-bN.
T29 chain: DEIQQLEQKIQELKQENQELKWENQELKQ
Kind of assay: two-hybrid library CCNG1.

The target of assay [32] is T30, 4H3926-bH.
T30 chain: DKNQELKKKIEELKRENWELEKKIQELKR
The assay is described as follows: two-hybrid library CCNG1.

The target in assay [33] is T31, 4H40-bN.
T31 chain: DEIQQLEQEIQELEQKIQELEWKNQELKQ
The assay is described as follows: two-hybrid library CCNG1.

In assay [34] the target is T32, 4H477-bN.
T32 chain: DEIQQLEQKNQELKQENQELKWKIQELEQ
Kind of assay: two-hybrid library CCNG1.

Assay [35] deals with T33, 4H492-bN.
T33 chain: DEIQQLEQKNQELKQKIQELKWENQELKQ
The assay is described as follows: two-hybrid library CCNG1.

The target of assay [36] is T34, 4H741-bN.
T34 chain: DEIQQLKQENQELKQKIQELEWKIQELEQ
Kind of assay: two-hybrid library CCNG1.

Chain of 4H_GCN4 (chain, as listed by the source): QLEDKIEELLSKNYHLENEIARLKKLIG

Regarding DKIAALKAEIAALEAKIAALEAKNAALKG [4H2600-AA], the interaction score in [1] was 1.58; in assay [2], -0.793; in assay [3], -1.65; in assay [4], 0.0245; in [5], -0.911; in [6] it was -0.236. Further, the interaction score in [7] is 2.12; in assay [8], 0.646; in assay [9], 0.21; in assay [10], -1.12; in assay [11] it was -1.72; in [12], 0.497. The interaction score is -0.657 in assay [13]; 0.179 in assay [14]; -0.393 in [15]; -1.47 in assay [16]; -1.4 in assay [17]; -1.63 in assay [18]. For the same molecule, the interaction score in assay [19] is -1.38.
Regarding DKIQQLEQKNQELEQEIQELEWKIQELKQ [4H2438-bN], the interaction score was 1.09 in assay [20]; 1.05 in assay [21]; 0.452 in assay [22]; -0.403 in [23]; -1.41 in assay [24]; -0.613 in [25]. Moreover, the interaction score was -1.05 in [26]; 2 in assay [27]; 2.19 in assay [28]; -0.63 in [29]; -0.843 in assay [30]; -1.05 in assay [31]. In addition, the interaction score in assay [32] was -4.14; in [33] it was -0.693; in [34] it was 0.509; in assay [35], 0.204; in [36], -0.278.
